Experimental data: patent publication US20100184658A1 (published 2010)

Key:
Test in all cases: cell-based or functional assay
PRKD1 (PKC mu) = molecular target: T1, PRKD1 (PKC mu) (UniProt Q15139 1-912, limits assumed)
T1 sequence (looked up): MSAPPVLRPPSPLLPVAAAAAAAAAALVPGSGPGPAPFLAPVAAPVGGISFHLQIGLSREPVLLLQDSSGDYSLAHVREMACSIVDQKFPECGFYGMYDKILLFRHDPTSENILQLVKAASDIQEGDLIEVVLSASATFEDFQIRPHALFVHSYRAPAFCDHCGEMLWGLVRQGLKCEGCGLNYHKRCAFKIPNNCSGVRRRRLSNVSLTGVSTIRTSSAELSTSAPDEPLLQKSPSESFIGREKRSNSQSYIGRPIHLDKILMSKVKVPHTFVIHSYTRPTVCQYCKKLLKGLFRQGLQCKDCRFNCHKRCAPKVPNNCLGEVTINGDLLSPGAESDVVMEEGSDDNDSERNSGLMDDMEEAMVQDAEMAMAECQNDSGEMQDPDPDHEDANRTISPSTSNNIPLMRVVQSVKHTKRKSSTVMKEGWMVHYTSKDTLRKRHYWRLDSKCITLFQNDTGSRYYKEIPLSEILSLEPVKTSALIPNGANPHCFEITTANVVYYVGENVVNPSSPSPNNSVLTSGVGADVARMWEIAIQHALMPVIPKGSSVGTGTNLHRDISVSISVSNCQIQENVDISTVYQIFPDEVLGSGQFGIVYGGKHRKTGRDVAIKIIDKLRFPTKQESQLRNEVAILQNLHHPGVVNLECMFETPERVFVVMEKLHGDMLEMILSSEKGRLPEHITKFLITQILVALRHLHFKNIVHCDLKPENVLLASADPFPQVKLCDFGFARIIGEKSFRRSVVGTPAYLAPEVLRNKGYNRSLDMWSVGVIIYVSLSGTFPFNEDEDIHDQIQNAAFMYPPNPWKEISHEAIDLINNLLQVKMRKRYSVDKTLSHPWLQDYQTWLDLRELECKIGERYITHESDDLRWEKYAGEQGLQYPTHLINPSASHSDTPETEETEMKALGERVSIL

[1] = molecular target: MINK1 Misshapen-like kinase 1 (UniProt Q8N4C8 1-320, limits assumed)
PRKCH (PKC eta) = PRKCH (PKC eta) (UniProt P24723 1-683, limits assumed)
[2] = molecular target: RPS6KB1 (p70S6K) Ribosomal protein S6 kinase, 70 kDa, polypeptide 1 (human (printed as (h)), UniProt P23443 1-421, limits assumed)
PRKCB2 (PKC beta II) = PRKCB2 (PKC beta II) (human (printed as (h)), UniProt P05771-2 1-673)
PDK1 = molecular target: T2, PDK1 (human (printed as (h)), UniProt O15530 1-556, limits assumed)
T2 sequence (looked up): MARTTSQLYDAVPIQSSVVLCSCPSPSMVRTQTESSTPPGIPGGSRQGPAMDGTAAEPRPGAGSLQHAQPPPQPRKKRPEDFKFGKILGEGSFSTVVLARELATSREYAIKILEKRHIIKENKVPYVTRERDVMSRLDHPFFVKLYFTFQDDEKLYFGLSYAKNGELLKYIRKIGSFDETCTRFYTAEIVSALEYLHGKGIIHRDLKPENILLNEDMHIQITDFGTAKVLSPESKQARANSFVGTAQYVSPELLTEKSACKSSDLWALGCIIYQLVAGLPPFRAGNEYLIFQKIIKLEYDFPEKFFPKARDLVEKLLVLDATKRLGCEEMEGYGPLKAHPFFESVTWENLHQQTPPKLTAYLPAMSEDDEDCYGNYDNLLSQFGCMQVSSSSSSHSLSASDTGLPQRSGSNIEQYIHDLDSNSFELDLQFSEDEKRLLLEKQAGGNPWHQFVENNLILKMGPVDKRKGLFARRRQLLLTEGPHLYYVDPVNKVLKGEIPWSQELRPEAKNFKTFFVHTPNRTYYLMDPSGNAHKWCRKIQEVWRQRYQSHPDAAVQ

GSK3β(h) = GSK3β(h) (human (printed as (h)), UniProt P49841 1-420, limits assumed)
MAPK1(h) = MAPK1(h) (human (printed as (h)), UniProt P28482 1-360, limits assumed)
PKA(h) = PKA(h) (human (printed as (h)), UniProt P17612 1-351)
MAPK2(h) = MAPK2(h) (human (printed as (h)), UniProt P28482 1-360)
PRKCZ (PKC zeta) = molecular target: T3, PRKCZ (PKC zeta) (human (printed as (h)), UniProt Q05513 1-592, limits assumed)
T3 sequence (looked up): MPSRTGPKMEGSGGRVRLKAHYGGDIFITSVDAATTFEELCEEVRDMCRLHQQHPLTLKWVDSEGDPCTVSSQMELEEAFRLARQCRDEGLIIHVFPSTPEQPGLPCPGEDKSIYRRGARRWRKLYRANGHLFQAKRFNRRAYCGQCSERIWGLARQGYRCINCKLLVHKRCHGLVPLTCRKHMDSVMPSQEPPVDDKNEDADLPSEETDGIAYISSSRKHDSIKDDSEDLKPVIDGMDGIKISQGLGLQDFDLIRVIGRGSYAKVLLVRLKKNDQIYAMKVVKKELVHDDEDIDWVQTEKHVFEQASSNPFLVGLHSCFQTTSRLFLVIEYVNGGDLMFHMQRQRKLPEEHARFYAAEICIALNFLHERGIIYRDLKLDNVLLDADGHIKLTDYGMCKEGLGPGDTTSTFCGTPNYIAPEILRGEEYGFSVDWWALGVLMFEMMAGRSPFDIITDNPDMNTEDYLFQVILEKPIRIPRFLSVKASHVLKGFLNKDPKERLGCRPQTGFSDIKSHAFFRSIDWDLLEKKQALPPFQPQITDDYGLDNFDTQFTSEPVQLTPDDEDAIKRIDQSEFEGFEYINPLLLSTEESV

Chain of RPS6KB1 (p70S6K) Ribosomal protein S6 kinase, 70 kDa, polypeptide 1 (human (printed as (h)), UniProt P23443 1-421, limits assumed) (P23443 1-421 limits assumed): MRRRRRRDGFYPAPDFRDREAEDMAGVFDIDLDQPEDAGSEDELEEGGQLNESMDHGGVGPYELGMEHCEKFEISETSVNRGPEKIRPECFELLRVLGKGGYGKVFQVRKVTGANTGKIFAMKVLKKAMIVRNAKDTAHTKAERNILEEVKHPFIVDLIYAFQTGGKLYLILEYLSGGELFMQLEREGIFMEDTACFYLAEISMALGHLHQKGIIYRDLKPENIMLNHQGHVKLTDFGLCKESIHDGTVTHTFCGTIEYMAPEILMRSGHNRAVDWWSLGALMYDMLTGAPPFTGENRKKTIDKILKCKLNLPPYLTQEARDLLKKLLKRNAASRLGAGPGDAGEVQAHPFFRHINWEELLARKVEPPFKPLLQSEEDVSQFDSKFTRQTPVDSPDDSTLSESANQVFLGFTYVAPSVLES
Chain of GSK3β(h) (human (printed as (h)), UniProt P49841 1-420, limits assumed) (P49841 whole entry): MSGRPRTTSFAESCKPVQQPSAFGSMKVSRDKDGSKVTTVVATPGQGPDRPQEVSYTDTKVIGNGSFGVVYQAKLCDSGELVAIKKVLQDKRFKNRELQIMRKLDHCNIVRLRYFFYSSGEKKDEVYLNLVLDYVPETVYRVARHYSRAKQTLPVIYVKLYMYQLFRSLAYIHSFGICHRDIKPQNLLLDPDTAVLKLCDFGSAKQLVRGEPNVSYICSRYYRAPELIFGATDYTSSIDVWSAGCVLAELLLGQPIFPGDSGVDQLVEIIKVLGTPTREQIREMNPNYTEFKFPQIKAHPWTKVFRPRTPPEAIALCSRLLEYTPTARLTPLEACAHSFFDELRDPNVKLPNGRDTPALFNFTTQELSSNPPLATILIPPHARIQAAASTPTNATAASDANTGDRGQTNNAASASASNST
Chain of MAPK2(h) (human (printed as (h)), UniProt P28482 1-360) (P28482 whole entry): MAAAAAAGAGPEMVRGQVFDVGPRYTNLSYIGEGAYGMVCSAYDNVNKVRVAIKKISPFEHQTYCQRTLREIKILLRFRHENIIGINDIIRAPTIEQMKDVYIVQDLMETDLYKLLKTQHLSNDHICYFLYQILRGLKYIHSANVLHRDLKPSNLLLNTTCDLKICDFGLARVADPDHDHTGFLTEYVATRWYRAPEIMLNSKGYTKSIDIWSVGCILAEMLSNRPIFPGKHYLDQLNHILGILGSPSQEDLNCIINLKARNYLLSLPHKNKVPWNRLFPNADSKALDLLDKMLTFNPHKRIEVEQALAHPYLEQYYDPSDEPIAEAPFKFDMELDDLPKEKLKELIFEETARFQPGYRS
Chain of MAPK1(h) (human (printed as (h)), UniProt P28482 1-360, limits assumed) (P28482 whole entry): as above
Chain of PRKCB2 (PKC beta II) (human (printed as (h)), UniProt P05771-2 1-673) (P05771 other isoform, or with tags, fused parts or gaps limits assumed): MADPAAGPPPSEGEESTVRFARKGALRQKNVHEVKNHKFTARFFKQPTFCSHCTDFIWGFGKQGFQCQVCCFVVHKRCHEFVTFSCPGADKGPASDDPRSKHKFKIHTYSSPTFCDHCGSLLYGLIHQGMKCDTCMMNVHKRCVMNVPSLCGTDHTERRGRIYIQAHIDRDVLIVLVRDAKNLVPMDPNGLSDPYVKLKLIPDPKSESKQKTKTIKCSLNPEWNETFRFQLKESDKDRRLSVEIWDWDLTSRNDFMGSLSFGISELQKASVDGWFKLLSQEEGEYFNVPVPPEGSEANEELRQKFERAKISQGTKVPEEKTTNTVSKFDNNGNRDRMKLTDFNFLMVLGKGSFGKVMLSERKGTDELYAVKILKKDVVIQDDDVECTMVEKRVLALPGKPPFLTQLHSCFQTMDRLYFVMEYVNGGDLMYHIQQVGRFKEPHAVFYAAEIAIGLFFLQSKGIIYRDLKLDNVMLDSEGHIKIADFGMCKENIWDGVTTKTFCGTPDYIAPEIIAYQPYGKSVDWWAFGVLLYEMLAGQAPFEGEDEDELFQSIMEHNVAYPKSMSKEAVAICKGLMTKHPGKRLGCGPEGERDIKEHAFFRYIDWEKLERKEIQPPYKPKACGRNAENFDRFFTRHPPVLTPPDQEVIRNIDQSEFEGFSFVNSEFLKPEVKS
Chain of MINK1 Misshapen-like kinase 1 (Q8N4C8 1-320 limits assumed): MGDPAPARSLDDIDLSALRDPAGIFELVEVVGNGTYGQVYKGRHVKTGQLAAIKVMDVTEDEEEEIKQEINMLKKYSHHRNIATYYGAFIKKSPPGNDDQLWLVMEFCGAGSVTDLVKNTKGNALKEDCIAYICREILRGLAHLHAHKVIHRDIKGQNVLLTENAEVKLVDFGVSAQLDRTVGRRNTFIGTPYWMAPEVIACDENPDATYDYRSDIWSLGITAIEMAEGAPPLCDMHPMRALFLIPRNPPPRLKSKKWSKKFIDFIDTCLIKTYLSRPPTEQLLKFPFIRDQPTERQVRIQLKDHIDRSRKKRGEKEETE
Chain of PRKCH (PKC eta) (P24723 whole entry): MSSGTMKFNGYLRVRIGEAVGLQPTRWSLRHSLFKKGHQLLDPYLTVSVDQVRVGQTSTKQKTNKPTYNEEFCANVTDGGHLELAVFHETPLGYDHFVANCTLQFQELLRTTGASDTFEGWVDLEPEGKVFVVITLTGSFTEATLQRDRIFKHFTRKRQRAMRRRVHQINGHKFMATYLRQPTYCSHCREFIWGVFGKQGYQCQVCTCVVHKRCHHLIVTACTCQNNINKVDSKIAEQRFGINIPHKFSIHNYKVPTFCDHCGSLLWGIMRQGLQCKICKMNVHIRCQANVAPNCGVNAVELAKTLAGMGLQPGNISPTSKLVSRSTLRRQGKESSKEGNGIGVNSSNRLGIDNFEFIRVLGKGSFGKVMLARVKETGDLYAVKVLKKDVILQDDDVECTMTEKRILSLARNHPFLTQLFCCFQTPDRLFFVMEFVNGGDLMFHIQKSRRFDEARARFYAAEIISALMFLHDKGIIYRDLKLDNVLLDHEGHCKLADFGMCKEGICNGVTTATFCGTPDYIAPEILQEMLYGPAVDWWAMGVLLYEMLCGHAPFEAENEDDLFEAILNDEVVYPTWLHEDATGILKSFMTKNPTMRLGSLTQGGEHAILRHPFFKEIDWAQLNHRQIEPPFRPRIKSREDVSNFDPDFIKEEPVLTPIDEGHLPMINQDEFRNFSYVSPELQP

B1: D3 peptide (peptide)
peptide: SGRPPMIVWFNRPFLIAVSHTHGQTILFMAKVINPVGA
- % Inhibition mean (PRKD1 (PKC mu)): 80.6%
- % Inhibition mean [1]: 101%
- % Inhibition mean (PRKCH (PKC eta)): 46.5%
- D3 at 0.1 µM % activity [2]: 73%
- D3 at 1 µm % activity [2]: 22%
- IC50 [2]: 373 nM
- D3 at 0.1 µM % activity (PRKCB2 (PKC beta II)): 101%
- D3 at 1 µm % activity (PRKCB2 (PKC beta II)): 103%
- D3 at 0.1 µM % activity (PDK1): 98%
- D3 at 1 µm % activity (PDK1): 108%
- D3 at 0.1 µM % activity (GSK3β(h)): 101%
- D3 at 1 µm % activity (GSK3β(h)): 100%
- D3 at 0.1 µM % activity (MAPK1(h)): 86%
- D3 at 1 µm % activity (MAPK1(h)): 92%
- D3 at 0.1 µM % activity (PKA(h)): 115%
- D3 at 1 µm % activity (PKA(h)): 105%
- D3 at 0.1 µM % activity (MAPK2(h)): 96%
- D3 at 1 µm % activity (MAPK2(h)): 96%
- D3 at 0.1 µM % activity (PRKCZ (PKC zeta)): 95%
- D3 at 1 µm % activity (PRKCZ (PKC zeta)): 42%
- IC50 (PRKCZ (PKC zeta)): 1040 nM
